# Results taken from US20090018083A1 (ALBERT EINSTEIN SCHOOL OF MEDICINE OF YESHIVA UNIVERSITY, published 2009).
# No end group written: not given here.
# T1: PLZF BTB domain (UniProt Q05516 6-126, limits assumed)
# T1 construct: domain: BTB domain; Purified protein; also called BTB^PLZF
# T1 sequence (looked up): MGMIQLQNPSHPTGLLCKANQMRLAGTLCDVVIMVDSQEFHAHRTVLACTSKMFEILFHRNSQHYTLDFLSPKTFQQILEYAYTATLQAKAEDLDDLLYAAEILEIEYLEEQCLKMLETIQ
# B1: SMRT^1414-1430 peptide (SMRT-BBD), no additional N-terminal residues (peptide)
# peptide: LVATVKEAGRSIHEIPR
# notes: Made by thrombin digestion of the fusion protein
# B2: SMRT-BBD with residues 1427-1430 replaced by alanines (EIPR->AAAA) (peptide)
# peptide: LVATVKEAGRSIHAAAA
# notes: also called AAAA mutant; not shown: N-terminal fusion or tag residues depend on the assay (His-Trx fusion in co-purification, biotinylated tag remnant in SP)
# B3: SMRT-BBD with the SI to IS substitution at residues 1424-1425 (peptide)
# peptide: LVATVKEAGRISHEIPR
# notes: The text calls it SMRT-BBD; also called IS mutant; not shown: N-terminal fusion or tag residues depend on the assay (His-Trx fusion in co-purification, biotinylated tag remnant in SP)
# B4: hexahistidine tagged fusion protein containing BCoR residues 112 to 342 (other, UniProt Q6W2J9 112-342, looked up)
# chain: LGFSSERNPEMQFKPNTPETVEASAVSGKPPNGFSAIYKTPPGIQKSAVATAEALGLDRPASDKQSPLNINGASYLRLPWVNPYMEGATPAIYPFLDSPNKYSLNMYKALLPQQSYSLAQPLYSPVCTNGERFLYLPPPHYVGPHIPSSLASPMRLSTPSASPAIPPLVHCADKSLPWKMGVSPGNPVDSHAYPHIQNSKQPRVPSAKAVTSGLPGDTALLLPPSPRPSPR
# notes: not shown: hexahistidine tagged fusion partner
# B5: SMRT^1414-1430 peptide, biotinylated, immobilised for SPR (peptide)
# peptide: LVATVKEAGRSIHEIPR
# modifications: also: biotinylated lysine 8 residues N-terminal to the peptide, not in the given chain
# notes: SPR form of the minimal fragment; not shown: N-terminal residues left after TEV cleavage (BirA biotinylation motif, thrombin site)
# B6: BCoR 498-514 peptide (BCoR BBD) (peptide)
# peptide: RSEIISTAPSSWVVPGP
# notes: Purified peptide used for co-crystallisation; also called BCoR-BBD peptide; BCoR peptide
# B7: SMRT^1414-1441 peptide (fragment d), biotinylated, immobilised for SPR (peptide, UniProt Q9Y618 1414-1441, looked up)
# peptide: LVATVKEAGRSIHEIPREELRHTPELPL
# modifications: also: biotinylated lysine in N-terminal tag residues (not given here)
# notes: not shown: N-terminal residues left after TEV cleavage (BirA biotinylation motif, thrombin site)
# B8: hexahistidine tagged fusion protein containing BCoR residues 542 to 753 (other, UniProt Q6W2J9 542-753, looked up)
# chain: SSCPRMGGTDAVITNVSGSVSSAGRPASASPAPNANADGTKTSRSSVETTPSVIQHVGQPPATPAKHSSSTSSKGAKASNPEPSFKANENGLPPSSIFLSPNEAFRSPPIPYPRSYLPYPAPEGIAVSPLSLHGKGPVYPHPVLLPNGSLFPGHLAPKPGLPYGLPTGRPEFVTYQDALGLGMVHPMLIPHTPIEITKEEKPERRSRSHERA
# notes: as for B4
# B9: hexahistidine tagged fusion protein containing BCoR residues 317 to 547 (other, UniProt Q6W2J9 317-547, looked up)
# chain: SAKAVTSGLPGDTALLLPPSPRPSPRVHLPTQPAADTYSEFHKHYARISTSPSVALSKPYMTVSSEFPAARLSNGKYPKAPEGGEGAQPVPGHARKTAVQDRKDGSSPPLLEKQTVTKDVTDKPLDLSSKVVDVDASKADHMKKMAPTVLVHSRAGSGLVLSGSEIPKETLSPPGNGCAIYRSEIISTAPSSWVVPGPSPNEENNGKSMSLKNKALDWAIPQQRSSSCPRM
# notes: as for B4
# B10: SMRT^1417-1441 peptide, biotinylated, immobilised for SPR (peptide, UniProt Q9Y618 1417-1441, looked up)
# peptide: TVKEAGRSIHEIPREELRHTPELPL
# modifications: also: biotinylated lysine in N-terminal tag residues (not given here)
# notes: as for B7
# Assays:
# [1] = target: T1, PLZF BTB domain; experiment: ITC
# Method: All components were in 150 mM NaCl, 20 mM Hepes pH 7.7, 1 mM TCEP. […] To correct for dilution and mixing effects, a series of control injections was carried out, in which the heat of dilution was measured in blank titrations by injecting the peptide into the buffer.
# [2] = target: T2, BCL6-3C BTB domain (human BCL6 residues 5-129 with C8Q/C67R/C84N) (human, UniProt P41182 5-129); experiment: Ni-NTA co-purification with the His-tagged thioredoxin fusion, SDS-PAGE, stained gel
# [3] = target: T2, BCL6-3C BTB domain (human BCL6 residues …); experiment: native-gel mobility shift assay
# Method: (§1) The mixture was analyzed by non-denaturing polyacrylamide gel electrophoresis (PAGE) and protein bands were visualized with either Coomassie blue staining or silver staining.
# [4] = target: T2, BCL6-3C BTB domain (human BCL6 residues …); experiment: co-purification
# Method: (§2) In vitro binding assays. Co-purification: Equimolar amounts of His-tagged thioredoxin-corepressor fusion protein and BCL6 BTB or PLZF BTB domain were combined, incubated for at least two hours, and loaded onto a Ni-NTA spin column (Qiagen). The column was washed three times with 600 μl of wash buffer (200 mM NaCl, 20 mM Tris-HCl pH 8.0, 10 mM imidazole), and bound protein was released with 400 μl of elution buffer (200 mM NaCl, 20 mM Tris-HCl pH 8.0, 300 mM imidazole). Samples were analyzed on 10-20% SDS-PAGE gels and stained with Coomassie blue.
# [5] = target: T1, PLZF BTB domain; experiment: SPR
# Method: (§3) SPR: Biotinylated corepressor peptides were coupled to streptavidin-coated sensor chips to a density of 800 response units (Biacore 2000). BCL6 or PLZF BTB protein was serially diluted in running buffer (10 mM Hepes, pH 7.4, 150 mM NaCl, 3 mM EDTA, 0.005% v/v surfactant P20) and injected at a flow rate of 5 μL/min.
# [6] = target: T2, BCL6-3C BTB domain (human BCL6 residues …); experiment: non-denaturing PAGE mobility shift, constant BTB domain, increasing peptide
# Method: as §1
# [7] = target: T2, BCL6-3C BTB domain (human BCL6 residues …); experiment: SPR, biotinylated peptide on streptavidin chip, BCL6-3C BTB domain injected
# Method: “N.b.” indicates no detectable binding.
# as §3
# [8] = target: BCL6-3C BTB domain H116A (human, UniProt P41182 5-129); experiment: co-purification
# Method: as §2
# [9] = target: BCL6-3C BTB domain N21K (human, UniProt P41182 5-129); experiment: co-purification
# Method: as §2
binder,measurement,setting,value
B1,binding result,[1],no binding
B2,binding result,[2],no binding
B3,binding result,[2],no binding
RSEIISTAPASAVAPGP [BCoR peptide with the S507A/W509A/V511A triple mutation],binding result,[3],no binding
B4,binding result,[4],no binding
B5,binding result,[5],no binding
B6,binding result,[6],binds
RSEIISTAPWSSVVPGP [BCoR peptide with the S507W/W509S double mutation],binding result,[3],no binding
B7,binding result,[5],no binding
same,Kd,[7],15.8 nM
B8,binding result,[4],no binding
B9,binding result,[8],no binding
same,binding result,[9],no binding
B10,binding result,[5],no binding
